Measured values published in US20100129870.

How the values were obtained:
Assay in all cases: filter
[1] = biological target: ΔNS3 protein (NS3 protease domain) (Hepatitis C virus) (UniProt P26662); conditions: 100 nM protein; 4.9 at 50 nM; 0.1 without protein; Tris pH 7.8, Mg2+, Ca2+
[2] = biological target: T1, myeloperoxidase (MPO) (Homo sapiens) (UniProt P05164); conditions: 100 nM MPO; 2.66 at 50 nM; 1.49 without protein
T1 sequence: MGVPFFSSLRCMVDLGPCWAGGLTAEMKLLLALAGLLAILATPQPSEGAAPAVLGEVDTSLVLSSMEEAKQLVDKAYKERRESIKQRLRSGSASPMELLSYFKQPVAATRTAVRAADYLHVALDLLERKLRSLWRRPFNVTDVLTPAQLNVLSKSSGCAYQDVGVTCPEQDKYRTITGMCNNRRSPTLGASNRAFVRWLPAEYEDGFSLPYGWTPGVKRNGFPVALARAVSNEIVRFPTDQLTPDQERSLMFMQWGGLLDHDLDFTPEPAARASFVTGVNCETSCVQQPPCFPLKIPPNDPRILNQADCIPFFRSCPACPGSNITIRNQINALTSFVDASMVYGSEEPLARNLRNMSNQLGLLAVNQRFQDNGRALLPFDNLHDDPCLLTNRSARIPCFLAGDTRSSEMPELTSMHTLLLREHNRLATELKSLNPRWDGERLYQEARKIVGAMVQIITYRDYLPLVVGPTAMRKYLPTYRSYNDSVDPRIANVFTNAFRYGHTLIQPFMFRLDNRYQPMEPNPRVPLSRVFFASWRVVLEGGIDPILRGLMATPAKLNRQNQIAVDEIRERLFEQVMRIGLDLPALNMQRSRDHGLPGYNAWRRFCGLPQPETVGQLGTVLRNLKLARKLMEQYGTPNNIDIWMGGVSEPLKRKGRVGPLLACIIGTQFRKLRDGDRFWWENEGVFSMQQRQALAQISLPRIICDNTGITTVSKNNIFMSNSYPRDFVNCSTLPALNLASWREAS

[3] = biological target: bovine serum albumin (BSA) (Bos taurus) (UniProt P02769); conditions: 100 nM BSA
Chain of bovine serum albumin (BSA) (Bos taurus) (P02769 25-607): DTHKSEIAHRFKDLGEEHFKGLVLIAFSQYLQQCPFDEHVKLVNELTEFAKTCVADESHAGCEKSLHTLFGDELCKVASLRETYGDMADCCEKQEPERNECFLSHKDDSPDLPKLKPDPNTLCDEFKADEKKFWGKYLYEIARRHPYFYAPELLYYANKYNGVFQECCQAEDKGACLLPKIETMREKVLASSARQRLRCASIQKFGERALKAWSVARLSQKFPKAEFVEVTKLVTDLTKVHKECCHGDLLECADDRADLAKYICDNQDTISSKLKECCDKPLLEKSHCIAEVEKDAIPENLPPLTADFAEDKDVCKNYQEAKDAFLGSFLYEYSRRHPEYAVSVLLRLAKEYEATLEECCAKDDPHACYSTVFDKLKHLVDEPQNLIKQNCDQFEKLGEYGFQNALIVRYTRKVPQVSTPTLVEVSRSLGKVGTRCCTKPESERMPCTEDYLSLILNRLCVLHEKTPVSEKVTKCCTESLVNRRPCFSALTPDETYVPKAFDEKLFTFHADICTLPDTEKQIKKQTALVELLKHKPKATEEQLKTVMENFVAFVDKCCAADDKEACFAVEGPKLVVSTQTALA

GGGAGGUGGAACUGAAGGAGANNNNNNNNNNNNNNNNNNNNNNNNNNNNNNNNNNNNNNNNNNNNNNNNNNNNNNNACUUCGCAAUCGCUCUACGCA [RNA pool (generation zero)]
binding signal [1]: 8.1 % bound

GGUAGAUACGAUGGANNNNNNNNNNNNNNNNNNNNNNNNNNNNNNCAUGACGCGCAGCCA [RNA pool 2]
binding signal [2]: 1.7 % bound | binding signal [3]: 1.86 % bound
